Here are results for four molecules from patent publication US20240279622A1, “COELENTERAZINE-UTILIZING LUCIFERASES WITH STABLE GLOW-TYPE LIGHT EMISSION AND METHODS OF PRODUCING AND USING THEREOF” (MASARYKOVA UNIVERZITA, priority 2021, published 2024).

Residue numbers refer to the chain shown, from its start. In names and notes the source's numbering stands.

Series [1] can be described thus: Steady-state kinetic analysis of full-conversion cumulative luminescence curves. It counts as biochemical. Particulars: for kcat / Kd: 100 mM phosphate buffer pH 7.5, 37° C.; for Kd: read-out: Kp (equilibrium dissociation constant for enzyme-product complex); for Decrease of ratio Km/Kp: compared to the other tested variants; for Glow-type effectivity: kcat/Km divided by Km/Kp. The procedure:
Each luminescence trace was measured in 3 repetitions. The concentration of coelenterazine in the final reaction mixture ranged from 0.2 to 7.9 μM while the concentration of luciferase enzymes ranged from 17 to 640 nM.
An updated protocol applying new standards for collecting and fitting steady-state kinetic data was used. Unlike the classical initial velocity analysis, which requires a sophisticated luminometer calibration and quantum yield evaluation, luminescence data were recorded when letting the reaction proceed to completion beyond the initial linear phase. The recorded luminescence traces (rate vs. time) were transformed to reaction progress curves corresponding to cumulative luminescence in time. The transformed kinetic data (product vs. time) were fitted globally with the KinTek Explorer (KinTek Corporation, USA). The software allows for the input of a given kinetic model via a simple text description, and the program then derives the differential equations needed for numerical integration automatically.
Numerical integration of rate equations searching a set of kinetic parameters that produce a minimum χ^2 value was performed using the Bulirsch-Stoer algorithm with adaptive step size, and nonlinear regression to fit data was based on the Levenberg-Marquardt method. To account for fluctuations in experimental data, enzyme or substrate concentrations were slightly adjusted (5%) to derive best fits. Residuals were normalized by sigma values for each data point. The standard error was calculated from the covariance matrix during nonlinear regression. In addition to standard error values, more rigorous analysis of the variation of the kinetic parameters was accomplished by confidence contour analysis by using FitSpace Explorer (KinTek Corporation, USA). In these analyses, the lower and upper limits for each parameter were derived from the confidence contour obtained from setting χ^2 threshold at 0.9. The scaling factor, relating luminescence signal to product concentration, was applied as one of the fitted parameters, well constrained by end-point levels of kinetic traces recorded at particular substrate concentrations. Depletion of the available substrate after the reaction was ensured by repeated injection of the fresh enzyme.
The steady-state model, described by Equation (4), was used to obtain the values of turnover number kcat, Michaelis constant Km, and equilibrium dissociation constant for enzyme-product complex Kp. A conservative estimate for diffusion-limited substrate and product binding k1 and k3 (100 μM^−1·s^−1) was used as a fixed value to mimic the rapid equilibrium assumption. An alternative form of the model, described by Equation (5), was used to obtain estimates of kcat/Km directly by setting k−1=0.

The nature of series [2]: Anaerobic equilibrium binding of coelenterazine substrate (fluorescence). How it is done: The experiments were performed under strictly anaerobic conditions to prevent enzymatic oxidation of interacting ligands. To do so, all the equipment and material, including water, buffer, pipettes, tips, syringes, microplates, and sealing, were made anaerobic by incubating them overnight in the anaerobic glovebox Belle MR2 (Belle Technology, UK). The box was filled with ultra-high purity (UHP) nitrogen atmosphere containing the residual oxygen concentration of 2.3 ppm, as determined by the oxygen meter O2M-3 (Belle Technology, UK). Liquids were aliquoted to the volume of maximally 50 mL and were stirred overnight in the box to release any dissolved oxygen. Two hours prior to the experiment, a closed bottle with an evacuated lyophilized enzyme (oxygen depleted) was put into the glovebox, dissolved with anaerobic water, and incubated to remove any remaining oxygen possibly dissolved in the solution. Similarly, the stock solution of coelenterazine or coelenteramide in ethanol, which was long-term stored in a freezer under the nitrogen atmosphere without oxygen, was put into the glovebox in a closed bottle. A small aliquot of coelenterazine/coelenteramide was transferred into a new empty bottle and kept open for about 20 minutes to remove the remaining dissolved oxygen. After the incubation, a few microliters of an enzyme were mixed with the same amount of coelenterazine, and the mixture was visually inspected for any possible bioluminescence. If no light was observed and the mixture remained yellow even after a minute, all the reagents were ready for anaerobic measurements.
In the anaerobic glovebox, 200 μL of a differently concentrated enzyme was put into a separate well in a microplate and into each of these wells, 5 μL of coelenterazine or coelenteramide stock solution was added. As a blank, 200 μL of the enzyme was mixed with 5 μL of ethanol for each enzyme concentration. […] The extent of coelenterazine binding at each concentration was determined by measuring fluorescence spectra ranging from 480 to 580 nm upon excitation at 420 nm using the microplate spectrophotometer Varioskan LUX (Thermo Scientific, USA). Binding of coelenteramide was monitored by measuring fluorescence spectra ranging from 350 to 700 nm upon excitation at 330 nm. […]
The obtained fluorescence spectra were visually inspected for characteristic peaks, and the value of the maximal fluorescence intensity Fluomax at these peaks was plotted against the enzyme concentration. The final value of the dissociation constant Kd was determined by fitting the dependence with the hyperbolic Equation (8) using the software Origin 6.1 (OriginLab, USA).

A short description of series [3]: Stopped-flow pre-steady-state kinetics of substrate binding (tryptophan fluorescence quenching). Particulars: 15° C. How it is done: The measurement was performed at 15° C. in 100 mM potassium phosphate buffer pH 7.5. Rapid mixing of the components was achieved using the Stopped-Flow SFM 3000 combined with the MOS-500 spectrometer (BioLogic, France). The reaction was initiated by mixing 75 μL of an enzyme with 75 μL of coelenterazine and then monitored by the change of native tryptophan fluorescence (295 nm excitation, 340±13 nm emission). The fluorescence changes were caused by the quenching effect of the coelenterazine substrate upon its binding by an enzyme. The experiment was designed in two different modes, varying either the concentration of the coelenterazine substrate or the concentration of an enzyme. Each kinetic trace was measured in seven consecutive replicates and averaged. The concentration of coelenterazine in the final reaction mixture ranged from 0.9 to 90 μM while the concentration of luciferase enzymes ranged from 0.4 to 94 μM.
The collected double-exponential kinetic traces were fitted globally with the KinTek Explorer (KinTek Corporation, USA). The software allows for the input of a given kinetic model via a simple text description, and the program then derives the differential equations needed for numerical integration automatically. Numerical integration of rate equations searching a set of kinetic parameters that produce a minimum χ^2 value was performed using the Bulirsch-Stoer algorithm with adaptive step size, and nonlinear regression to fit data was based on the Levenberg-Marquardt method. Residuals were normalized by sigma values for each data point. The standard error was calculated from the covariance matrix during nonlinear regression. In addition to standard error values, more rigorous analysis of the variation of the kinetic parameters was accomplished by confidence contour analysis by using FitSpace Explorer (KinTek Corporation, USA). In these analyses, the lower and upper limits for each parameter were derived from the confidence contour obtained from setting the χ^2 threshold at 0.95.
The time-course of the fluorescence quenching upon substrate binding was described with Equation (7) according to the induced-fit binding mechanism and the mechanism was fit directly to the collected kinetic data to obtain the values of elementary rate constants describing the substrate binding process. The quality of the best fits was compared in terms of χ^2 values, “chi-by-eye” assessment, and confidence contour analysis assessing constraint and independency of the determined parameters which confirmed that the obtained values are well-defined by the collected kinetic data.

A short description of series [4]: Anaerobic equilibrium binding of coelenteramide product (fluorescence). Particulars: pH 7.5, 30° C., read-out: Dissociation constant Kd, Coelenteramide product. How it is done: The experiments were performed under strictly anaerobic conditions to prevent enzymatic oxidation of interacting ligands. To do so, all the equipment and material, including water, buffer, pipettes, tips, syringes, microplates, and sealing, were made anaerobic by incubating them overnight in the anaerobic glovebox Belle MR2 (Belle Technology, UK). The box was filled with ultra-high purity (UHP) nitrogen atmosphere containing the residual oxygen concentration of 2.3 ppm, as determined by the oxygen meter O2M-3 (Belle Technology, UK). Liquids were aliquoted to the volume of maximally 50 mL and were stirred overnight in the box to release any dissolved oxygen. […] If no light was observed and the mixture remained yellow even after a minute, all the reagents were ready for anaerobic measurements.
In the anaerobic glovebox, 200 μL of a differently concentrated enzyme was put into a separate well in a microplate and into each of these wells, 5 μL of coelenterazine or coelenteramide stock solution was added. […] The extent of coelenterazine binding at each concentration was determined by measuring fluorescence spectra ranging from 480 to 580 nm upon excitation at 420 nm using the microplate spectrophotometer Varioskan LUX (Thermo Scientific, USA). Binding of coelenteramide was monitored by measuring fluorescence spectra ranging from 350 to 700 nm upon excitation at 330 nm. […]

A short description of series [5]: Thermal unfolding by NanoDSF (tryptophan fluorescence). Particulars: 100 mM potassium phosphate buffer pH 7.5, 1° C./min. The class given is physicochemical. How it is done: Thermal unfolding was studied using NanoDSF Prometheus (NanoTemper, Germany) by monitoring tryptophan fluorescence over the temperature range of 20 to 90° C., at a heating rate of 1° C./min. The melting temperatures (Tonset and Tm) were evaluated directly by ThermControl v2.0.2.
(In DSF a fluorescence change marks the thermal transition of the protein.)

B1: AncFT: Ancestral protein AncHLD-RLuc with the L9-α4 region transplanted from RLuc; glow-type coelenterazine-utilizing luciferase (protein)
chain: MVSASQRTTSTATGDEWWAKCKQVDVLDSEMSYYDSDPGKHKNTVIFLHGNPTSSYLWRNVIPHVEPLARCLAPDLIGMGKSGKLPNHSYRFVDHYRYLSAWFDSVNLPEKVTIVCHDWGSGLGFHWCNEHRDRVKGIVHMESVVDVIESWDEWPDIEEDIALIKSEAGEEMVLKKNFFIERLLPSSIMRKLSEEEMDAYREPFVEPGESRRPTLTWPREIPIKGDGPEDVIEIVKSYNKWLSTSKDIPKLFINADPGFFSNAIKKVTKNWPNQKTVTVKGLHFLQEDSPEEIGEAIADFLNELTK
modifications: Amino acid sequence of AncFT
On to B1, for which, in series [1], the kcat (usually the number of substrate molecules converted per active site and unit of time at saturation) worked out at 0.111 ± 0.001 s⁻¹; the Kd turned out to be 500 ± 100 nM; the “Decrease of ratio Km/Kp” value was determined as 10 fold; the Glow-type effectivity was 12 ± 3. For the same molecule, in series [2] (anaerobic, pH 7.5, 30° C., read-out: Dissociation constant Kd, Coelenterazine substrate), the Kd is 12000 ± 5000 nM. Besides, the Kd ratio substrate/product in series [2] (ratio) turned out to be 0.7 ± 0.3. Further, in series [3] (pH 7.5), the “k+2” value was 31.9 ± 1.1 s⁻¹, the “k−1” value came to 367 ± 5 s⁻¹ and the “k−2” value was found to be 27.5 ± 0.4 s⁻¹. In addition, the “k+1” value in series [3] (pH 7.5, induced-fit binding mechanism) amounted to 5.21e+06 ± 70000 M⁻¹ s⁻¹. For the same molecule, in series [4], the Kd was found to be 16000 ± 2000 nM. Further, in series [5], the Tm (as a rule, the temperature at the midpoint of the melting transition) stood at 56.6 ± 0.1 °C and the Tonset came out at 50.5 ± 0.1 °C.

B2: AncFT-L14: AncFT with additionally transplanted L14 loop (LVKGGKP at positions 223 to 229) from RLuc (protein)
chain: B1 chain with I223L, K224V, G225K, D226G, P228K, E229P
modifications: Amino acid sequence of AncFT-L14
notes: AncFT with additionally transplanted L14 loop (LVKGGKP at positions 223 to 229) from RLuc
As to B2, in series [1], the kcat came out at 0.168 ± 0.001 s⁻¹, the Kd came to 550 ± 30 nM, the “Decrease of ratio Km/Kp” value amounted to 10 fold and the Glow-type effectivity amounted to 48 ± 6. The “Improvement of glow-type effectivity” value in series [1] (compared to AncFT) turned out to be 4 fold. Further, the “Improvement of glow-type effectivity” value in series [1] (compared to RLuc8) was “more than 20 fold”. Besides, in series [5], the Tm came out at 47.0 ± 0.1 °C and the Tonset turned out to be 39.8 ± 0.2 °C.

B3: AncFT-D160A: AncFT carrying the single-point D160A mutation; blue-shifted emission (protein)
chain: B1 chain with D160A
modifications: Amino acid sequence of AncFT-D160A
notes: AncFT carrying the single-point D160A mutation; blue-shifted emission
With B3, in series [1], the kcat was 0.339 ± 0.001 s⁻¹, the Kd is 230 ± 10 nM, the “Decrease of ratio Km/Kp” value amounted to 10 fold and the Glow-type effectivity amounted to 3.6 ± 0.3. Also, in series [5], the Tm was found to be 57.9 ± 0.1 °C and the Tonset turned out to be 51.5 ± 0.1 °C.

B4: Super RLuc8: Recently reported RLuc8 enzyme variant (Rahnama et el., 2017) (protein)
chain: MTSKVYDPEQRKRMITGPQWWARCKQMNVLDSFINYYDSEKHAENAVIFLHGNATSSYLWRHVVPHIEPVARCIIPDLIGMGKSGKSGNGSYRLLDHYKYLTAWFELLNLPKKIIFVGHDWGSALAFHYAYEHQDRIKAIVHMESVVDVIESWKNWPDIEEELALIKSEEGEKMVLENNFFVETVLPSVIMRKLEPEEFAAYLEPFKEKGEVRRPTLSWPREIPLVKGGKPDVVQIVRNYNAYLRASDDLPKLFIESDPGWFSNAIIEGAKKFPNTEFVKVKGLHFLQEDAPDEMGKYIKSFVERVLKNEQ
modifications: Super RLuc8
As to B4, in series [1], the kcat came out at 6.49 ± 0.05 s⁻¹, the Kd was found to be 920 ± 10 nM and the Glow-type effectivity stood at 0.17 ± 0.02. Moreover, in series [5], the Tm was determined as 50.1 ± 0.2 °C and the Tonset was 39.1 ± 0.3 °C.
